This is an account of results in the nanobody polyreactivity screen of Harvey et al. (2022).

This series in a line: yeast display, Sf9 membrane polyspecificity reagent, FACS + sequencing; frameworks hold sequencing errors. The method in brief: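 A synthetic nanobody library was expressed on Saccharomyces cerevisiae BJ5465 by galactose induction for 36–48 hours. The library was stained for 1 hour at 4 °C with 10% biotinylated, detergent-solubilized Sf9 membrane reagent and enriched with streptavidin microbeads before FACS. Low and high (top ~1%) gates were set on anti-HA fluorescence for expression and streptavidin fluorescence for reagent binding, and each polyreactivity label reflects the gate of origin.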
Consider “QVQLVESGGGLVQAGGSLRLSCAASGSTLSQNAMGWYRQAPGKEREFVADISGSGDSTYYADSVKGRFTISRDNAKNTVYLQMNSLKPEDTAVYYCAARSLVQDHAYGYNYWGQGTQVTVSS”, for which the “polyreactivity (PSR sort gate)” value is “low polyreactivity”.
Turning to “QVQLVESGGGLVQAGGSLRLSCAASGLIFVVYTMGWYRQAPGKERELVAAITGRGGSTYADSVKGRFTISRDNAKNTVYLQMNSLKPEDNAVYYCNRADYYGYRFRVYDRLDYWGQGTQVTVSS”, the “polyreactivity (PSR sort gate)” value is “low polyreactivity”.
Regarding “QVQLVESGGGLVQAGGSLRLSCAASGSTFDTYAMGWSRPAPGKERELVAAITSGSSTNYADSVKGRFTISRDNAKNTVYLQMNSLKPEDTAVYYCAALGYNVSSRGYYYWGQGTQVTVSS”, the “polyreactivity (PSR sort gate)” value is given as “low polyreactivity”.
For the sequence “QVQLVESGGGLVQAGGSLRLSCAASGRIFKRNAMGWYRQAPGKERELVAAITGNVGSTYYADSVKGRFTISRDNAKNTVYLQMNSLKPEDTAVYYCAAYVQYSSIVGYGYWGQGTQVTVSS”, the “polyreactivity (PSR sort gate)” value is “high polyreactivity”.
With “QVQLVESGGGLVQAGGSLRLSCAASGRIFSYYDMGWYRQAPGKERELVARISYSGDSTYYADSVKGRFTISRDNAKNTVYLQMNSLKPEDTAVYYCADEVDSGYSEYYWGQGTQVTVSS” the entry was “low polyreactivity”; with “QVQLVESGGGLVQAGGSLRLSCAASGRTFQGYSMGWYRQAPGKERELVAAISRSGGRTYYADSVKGRFTISRDNAKNTVYLQMNSLKPEDTAVYYCATDAFRDYGYWGQGTQVTVSS”, “high polyreactivity”; with “QVQLVESGGGLVQAGGSLRLSCAASGSIFGAYAMGWYRQAPGKERELVAVIRWGGGSTYADSVKGRFTISRDNAKNTVYLQMNRLKPEDTAVYYCNRDKSWADLYSHAYDYWGQGTQVTVSS”, “low polyreactivity”.
With “QVQLVETGGGLVQAGGSLRLSCAASGFTFRPYVMGWYRQPPGKERELVAGITWDGDSTYYADSVKGRFTISRDNPKNTVYLQMNSLKPEDTAVYYCAAEDADWVSQYYYWGQGTQVTVSS” the entry was “high polyreactivity”.
With “QVQLVESGGGLVQAGGSLRLSCAASGRIFRDYAMGWYRQAPGKERELVAAIRSVGNTNYADSVKGRFTISRDNAKNTVYLQMNSLKPEDTAVYYCNRQGSYFSRQAIGDFRFDYWGQGTQVTVSS” the entry was “low polyreactivity”; with “QVQHVESAGGLVQEAGSLRLRCAASGSTFYSYAMGWSRQAPGKERELVAAISRSGGRTNYADSVKGRFTISRDIAKNTVYLQMNSLKPEDTAVYYCNARHYLSAYDYWGQGTQVTVSS”, “high polyreactivity”.
On to “QVQLVESGGGLVQAGGSLRLSCAASGITFVRYAMGGYRQAPGKESELVAGISRGGSTNYADSVKGRFTISRDNAKNTVYLQMNSLKPEDSAVYYCNALYARRVYVGYDYWGQGTQVTVSS”, for which the “polyreactivity (PSR sort gate)” value is on record as “high polyreactivity”.
With “QVQLVESGGGLVQAGGSLRLSCAAYGSTFPGYAMGWYRQAPGKERELVAAISASGGSTYYADSVKGRFTISRDNAKNTVYLQMISLIPEDTAVYFCAKVLSRGACADDYWGQGTQVTVSS” the entry was “low polyreactivity”; with “QVQLVESGGGLVQAGGSLRLSCAASGIIFIGYTMGWYRQAPGKERELVAAISRIGGSTYYADSVKGRFTISRDNAKNTVYLQMNSLKPEDTAVYYCAAQYYGSSYRRGYYWGQGTQVTVSS”, “high polyreactivity”.
With “QVQLVESGGGLVQAGGSLRLSCAASGSTFFRYAMGWYRQAPGKERELVAVINRGGSTYYADSVKGRFTISRDNAKNTVYLQMNSLKPEDTAVYYCAKRVFYPGAYRYYYWGQGTQVTVSS” the entry was “high polyreactivity”; with “QVQLVESGGGLVQAGGSLRLRCAASGFTFGAYAMGWYRQAPGKERELVATIDWRGSSTYYADSVKGRFTISRDNAKNTVYLQMNSLKPEDTAVYYCAARLARGSYAYEYWGQGTQVTVSS”, “low polyreactivity”; with “QVQLVESGGGLVQAGGSLRLSCAASGRTLSVYAMGWYRQAPGKERELVAAITWRGGSTYYADSVKGRFTISRDNAKNTVYLQMNSLKPEDTAVYYCAAEDYTYNGGGYEYWGQGTQVTVSS”, “low polyreactivity”.
With “QVQLVESGGGLVQAGGSLRLSCAASGGTFSPYAMGWYRQAPGKERELVAVIRSDVTTNYADSVKGRFTISRDNAKNTVYLQMNSLKPEDTAVYYCNVERHRVWDYQWREEDDYWGQGTQVTVSS” the entry was “low polyreactivity”.
With “QVQLVESGGGLDQAGGSLRLSCAASGFTFPGNAMGWYRQSPGKEREFVAGISRSGDSTYYADSVKGRFTISRDNAKNTVYLQMNSLKPEDTAVYYCAARNPYRYFYYYEYWGQGTQVTVSS”, the “polyreactivity (PSR sort gate)” value is “low polyreactivity”.
With “QVQLVESGGGLVQAGGSLRLSCADSGSIFTSNGMGWYRHAPGKERELVAAITSGTSTYYADSVKGRFTISRDNAKNTVYLQMNSLKPEDTAVYYCAAGRWWVYRYARYYYWGQGTQVTVSS” the entry was “high polyreactivity”; with “QVQLVESGGGLVQAGGSLRLSCAASGRIFYQNPMGWYRPAPGKERELVADISSGGSTYYADSVKGRFTISRDNAKNTVYLQMNSLKPEDTAGYYCNTPSGPGTVGSYRRIWYGYWGQGSQVTVSS”, “low polyreactivity”.
For the sequence “QVQHLESRGGLVQAGGSLRLSCAASGSIFASNAMGWYRPAPGKEREFVAAITWRTDRTYYADSVKGRYTISRDIAKNTVYLQMNSLKPEDTAVYYCNAGRRVYYYSAYYGGGYWGQGTQVTVSS”, the “polyreactivity (PSR sort gate)” value was “high polyreactivity”.
Consider “QVQLVESGGGLVQAGGSLRLSCAASGSIFYGYAMGWYRQAAGKERELVARITGSGGDTSYADSVKGRFTISRDNSKNTVYLQMNSLKPEDTALYYCNTDLYITYTLYTGSEYDYWGQGTQVTVSS”, for which the “polyreactivity (PSR sort gate)” value is reported as “low polyreactivity”.
On to “QVQLVESGGGLVQAGGSLRLSCAASGSTFLTNVMGWYRPAPGQERELVAAITIGGSTNYADSVKGRFTISRDNAKNTVYLQMNILKPEDTAVYYCATDIRRKPRYVDYEYWGQGTQVTVSS”, for which the “polyreactivity (PSR sort gate)” value is listed as “low polyreactivity”.
With “QVQLVESGGGLVQAGGILRLSCAASGIIFYYYAMGWYRQAPGKEMELVAGIRARGGITYYADSVKGRFTISRDNAKNTVYLLMNSLKPVDTAVYYCAKSTRPVSGVPDGPLYEYWGQGTQVTVSS” the entry was “low polyreactivity”; with “QVQLVESGGGLVQAGGSLRLSCAASGGTFIANAMGWYRPAPGKERELVAAITSRGGNTYYADSVKGRFTISRDNAKNTVYLQMNSLKPEDTSVYYCAARNDKRRQYYVGQSAFDFWGQGTQVTVSS”, “low polyreactivity”.
In the case of “QVQLVESWGGLVQAGGSLRLSCAASGRIINQYAMGWYRQAPGKERELVAAITLNGGSTYYADSVKGRFTISRDNAKNTVYLQMNSLKPEDTAVYYCNNRYTHYSRKGVSYPKYDYWGQGNQVTVSS”, the “polyreactivity (PSR sort gate)” value is given as “high polyreactivity”.
On to “QVQLVESGGGLVQAGGSLSLSCAASGRIFYRNAMGWYRQAPGKERELVAGITRGGSTNYADSVKGRFTISRDNAKNTVYLQMNSLKPEDTAVYYCAKAIPAKFYSEAGYDYWGQGTQVTVSS”, for which the “polyreactivity (PSR sort gate)” value was “low polyreactivity”.
With “EVQLQESGGGLVQAGGSLRLSCAASGYTYNEYVMGWYRQATGKERELVAAISGSGGSTYYADSVKGRFTISRDNAKNTVYLQMNSLKPEDTAVYYCAARGYNSRGYDMDYWGQGTQVTVSS” the entry was “high polyreactivity”; with “QVQLVESGGGLVQEGGSLRLSCAASGGTFYVNDMGWYRQAPGKERELVATITSGDSTNYADSVKGRFTISRDNAKNTVYLQRNCLKPEDTAVYYCNARGDVIVTPPKFSFNYVYWGQGTQVTVSS”, “low polyreactivity”.
On to “QVQLVESGGGLVQAGGSLRLSCAASGFTLIHYAMGWYRQAPGKERELVAGITTSGGSTYYADSVKGRFTISRDNAKNTVYLQMNSLKPEDTAVYYCAASSNTRGDYWGQGTQVTVSS”, for which the “polyreactivity (PSR sort gate)” value is reported as “high polyreactivity”.
With “QVQLVESGGGLVQAGGSLRLSCAASGRTFGSNAMGWYRQAPGKERELVAAITSSADSTYYADSVKGRFTISRDNAKNTVYLQMNSLKPEDTAVYYCATDQGGYYENDYWGQGTQVTVSS” the entry was “low polyreactivity”; with “QVQLVESGGGLVQAGGSLRLSCAASGRIFARNAMGWYRQAPGKERELVAVITSRGGSTYYADSVKGRFTISRDNAKNTVYLQMNSLKPEDTAVYYCAARYSGEYGYWGQGTQVTVSS”, “high polyreactivity”.
Take “QVQLVESGGGLVQAGGSLRLSCAASGIIFTRNAKGWSRQAPGKERELVAAISRSGGRTSYADSVKGRFTISRDNAKNTVYLHMNSLKPEDTEVYYCYARTTSGWGQGTQVTVSS”: the “polyreactivity (PSR sort gate)” value is “high polyreactivity”.
With “QVHLVESGGGLVQEGGSLRISCAASGGTFHSNDMGWYRQAPGKESELVASINWSGGSTYYSDSVKGRFTISRDNAKNTVYLQMNRLKPEDNAVYYCAARESYPGYGYDHWGQGTQVTVSS”, the “polyreactivity (PSR sort gate)” value is recorded as “low polyreactivity”.
As to “QVQLVESGGGLVQAGGSLRLSCAASGFIFESNAMGWYRQAPGKERELVAAITKRGGSTYYADSVKGRFTISRDNAKNTVYLQMNSLKPEDTAVYYCARYSSRYSSGYDYWGQGTQVTVSS”, the “polyreactivity (PSR sort gate)” value is listed as “high polyreactivity”.
With “QVQLVESGGGLVQAGGSLRLSCAASGRTFGRYAMGWYRQAPGKERELVATITSGGSTNYADSVKGRFTISRDNAKNTVYLQMNSLKPEDTAVYYCAAEFSPSRWAYSEGALRYNYWGQGTQVNVSS” the entry was “low polyreactivity”; with “QVQLVESGGGLVQAGGSLRLSCAASGRTFSRYAMGWYRQAPGKERELVAAIRGNSGNTYYADSVKGRFTISRDNAKNTVYLQMNSLKPEDTAVYYCAKPFNIWGQGTQVTVSS”, “high polyreactivity”; with “QVQLVESGGGLVQAGGSLRLRCAASRRTLGVYALGWYRQAPGKERELVATITAGGSITSYADSVKGRFTISRDNAKNTVYLQMNTLKPEDTAVYYCAAEQGCSVLYDSWGQGTQVTVSS”, “low polyreactivity”.
With “QVQLVESGGGLVQAGGSLRLSCAASGSTFYDNAMGWYRQAPGKERELVARITWNGGRTYYADSVKGRFTISRDNAKNTVYLQMNSLKPEDTAVYYCNAVYWGYGKYDYWGQGTQVTVSS” the entry was “high polyreactivity”; with “QVQLVESGGGLVQAGGSLRLSCAASGSTLSRYTMGWYRPEPGKERELVAAIRSSGGSTYYADSVKGRFTISRDNAKNTVYLQMNSLKPEDTAVYYCARTQQRTTERVHWIRYYYWGQGTQVTVSS”, “low polyreactivity”.
